Here are results for 2 molecules from patent US6426205 (MOUNT SINAI HOSPITAL, dated 2002).

The target in one assay is T1, Cdc4 (budding yeast, UniProt P07834 1-779).
T1 construct: Endogenous protein in yeast lysates, detected with anti-Cdc4 antibodies; also called endogenous Cdc4
T1 sequence: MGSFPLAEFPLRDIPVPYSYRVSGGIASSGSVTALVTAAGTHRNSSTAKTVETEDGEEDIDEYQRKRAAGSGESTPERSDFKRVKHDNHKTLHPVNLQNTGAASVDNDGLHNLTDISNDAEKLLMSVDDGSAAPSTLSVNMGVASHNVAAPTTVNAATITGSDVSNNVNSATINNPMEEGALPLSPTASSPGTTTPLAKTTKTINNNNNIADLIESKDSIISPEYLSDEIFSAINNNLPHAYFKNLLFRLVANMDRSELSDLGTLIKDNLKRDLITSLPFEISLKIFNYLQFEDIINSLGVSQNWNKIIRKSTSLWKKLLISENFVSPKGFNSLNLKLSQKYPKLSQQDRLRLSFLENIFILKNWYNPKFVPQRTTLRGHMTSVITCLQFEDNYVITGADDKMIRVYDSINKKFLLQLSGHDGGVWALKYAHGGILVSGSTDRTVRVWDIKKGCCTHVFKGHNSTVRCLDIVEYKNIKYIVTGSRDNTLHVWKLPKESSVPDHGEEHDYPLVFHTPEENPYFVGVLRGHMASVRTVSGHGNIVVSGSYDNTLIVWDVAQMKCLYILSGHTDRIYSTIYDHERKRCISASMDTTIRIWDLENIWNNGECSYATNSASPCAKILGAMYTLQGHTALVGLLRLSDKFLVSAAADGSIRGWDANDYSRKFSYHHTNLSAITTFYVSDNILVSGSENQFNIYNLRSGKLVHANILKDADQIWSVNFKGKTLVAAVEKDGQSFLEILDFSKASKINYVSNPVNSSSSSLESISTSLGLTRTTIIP
Put plainly: anti-MYC immunoprecipitation from yeast lysate, immunoblot.

Another assay addresses T2, Met30 (yeast, UniProt P39014 1-640).
T2 construct: Endogenous protein in yeast lysates, detected with anti-Met30 antibodies; also called endogenous Met30
T2 sequence: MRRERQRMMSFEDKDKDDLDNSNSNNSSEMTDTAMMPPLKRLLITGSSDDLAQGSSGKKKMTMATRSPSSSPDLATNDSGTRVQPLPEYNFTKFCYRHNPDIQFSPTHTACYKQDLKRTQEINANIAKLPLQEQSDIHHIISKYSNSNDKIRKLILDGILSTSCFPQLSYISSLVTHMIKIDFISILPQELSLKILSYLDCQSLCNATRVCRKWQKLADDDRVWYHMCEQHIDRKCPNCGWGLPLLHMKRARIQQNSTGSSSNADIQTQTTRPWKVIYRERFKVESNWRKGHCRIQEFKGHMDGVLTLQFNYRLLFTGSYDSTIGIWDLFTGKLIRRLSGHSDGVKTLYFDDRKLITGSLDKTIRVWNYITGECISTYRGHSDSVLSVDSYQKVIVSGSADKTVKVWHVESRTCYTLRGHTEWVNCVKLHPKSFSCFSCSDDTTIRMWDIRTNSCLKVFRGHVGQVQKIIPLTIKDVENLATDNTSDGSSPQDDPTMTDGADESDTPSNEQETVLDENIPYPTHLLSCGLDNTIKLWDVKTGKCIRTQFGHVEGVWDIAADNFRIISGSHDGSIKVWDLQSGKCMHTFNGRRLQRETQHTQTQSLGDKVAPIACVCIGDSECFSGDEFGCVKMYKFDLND
The description is as above.

The target of another assay is T3, Grr1 (budding yeast, UniProt P24814 1-1151).
T3 construct: Endogenous protein in yeast lysates, detected with anti-Grr1 antibodies; also called endogenous Grr1
T3 sequence: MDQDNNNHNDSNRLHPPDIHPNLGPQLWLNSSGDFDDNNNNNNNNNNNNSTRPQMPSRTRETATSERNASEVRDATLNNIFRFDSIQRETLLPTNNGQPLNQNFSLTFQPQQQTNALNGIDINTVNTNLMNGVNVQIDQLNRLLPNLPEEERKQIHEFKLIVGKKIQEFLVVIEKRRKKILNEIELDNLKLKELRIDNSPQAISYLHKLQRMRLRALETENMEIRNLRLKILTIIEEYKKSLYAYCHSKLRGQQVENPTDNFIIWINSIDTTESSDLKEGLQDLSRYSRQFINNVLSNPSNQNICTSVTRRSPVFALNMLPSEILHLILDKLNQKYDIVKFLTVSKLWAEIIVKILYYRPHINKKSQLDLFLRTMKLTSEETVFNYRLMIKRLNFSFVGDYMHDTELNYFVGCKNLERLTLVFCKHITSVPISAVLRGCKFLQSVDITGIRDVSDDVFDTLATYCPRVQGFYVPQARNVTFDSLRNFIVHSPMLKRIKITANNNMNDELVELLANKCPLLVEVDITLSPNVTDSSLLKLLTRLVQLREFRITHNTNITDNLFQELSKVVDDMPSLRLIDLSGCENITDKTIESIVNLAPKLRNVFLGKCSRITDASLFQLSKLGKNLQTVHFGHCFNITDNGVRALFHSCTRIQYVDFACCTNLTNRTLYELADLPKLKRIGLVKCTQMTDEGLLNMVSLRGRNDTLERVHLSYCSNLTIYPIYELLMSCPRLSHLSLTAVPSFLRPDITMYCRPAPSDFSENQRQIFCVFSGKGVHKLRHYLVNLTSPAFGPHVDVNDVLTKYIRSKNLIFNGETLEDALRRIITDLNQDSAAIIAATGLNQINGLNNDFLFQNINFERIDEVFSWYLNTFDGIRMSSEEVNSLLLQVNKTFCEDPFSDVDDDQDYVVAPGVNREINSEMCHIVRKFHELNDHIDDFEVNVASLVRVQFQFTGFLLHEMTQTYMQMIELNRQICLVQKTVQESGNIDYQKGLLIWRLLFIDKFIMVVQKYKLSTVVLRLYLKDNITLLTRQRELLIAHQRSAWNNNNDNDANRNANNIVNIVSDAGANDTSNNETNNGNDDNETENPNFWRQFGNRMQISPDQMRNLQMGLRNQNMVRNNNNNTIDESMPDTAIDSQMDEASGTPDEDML
Described as above.

The next assay concerns the target T4, Gal4^AD-Cdc4 isolates (budding yeast, UniProt P07834 1-779, limits assumed).
T4 construct: Library clones; all contained the F-box; also called Cdc4 two hybrid isolates; full length Cdc4 in the two hybrid system
T4 sequence: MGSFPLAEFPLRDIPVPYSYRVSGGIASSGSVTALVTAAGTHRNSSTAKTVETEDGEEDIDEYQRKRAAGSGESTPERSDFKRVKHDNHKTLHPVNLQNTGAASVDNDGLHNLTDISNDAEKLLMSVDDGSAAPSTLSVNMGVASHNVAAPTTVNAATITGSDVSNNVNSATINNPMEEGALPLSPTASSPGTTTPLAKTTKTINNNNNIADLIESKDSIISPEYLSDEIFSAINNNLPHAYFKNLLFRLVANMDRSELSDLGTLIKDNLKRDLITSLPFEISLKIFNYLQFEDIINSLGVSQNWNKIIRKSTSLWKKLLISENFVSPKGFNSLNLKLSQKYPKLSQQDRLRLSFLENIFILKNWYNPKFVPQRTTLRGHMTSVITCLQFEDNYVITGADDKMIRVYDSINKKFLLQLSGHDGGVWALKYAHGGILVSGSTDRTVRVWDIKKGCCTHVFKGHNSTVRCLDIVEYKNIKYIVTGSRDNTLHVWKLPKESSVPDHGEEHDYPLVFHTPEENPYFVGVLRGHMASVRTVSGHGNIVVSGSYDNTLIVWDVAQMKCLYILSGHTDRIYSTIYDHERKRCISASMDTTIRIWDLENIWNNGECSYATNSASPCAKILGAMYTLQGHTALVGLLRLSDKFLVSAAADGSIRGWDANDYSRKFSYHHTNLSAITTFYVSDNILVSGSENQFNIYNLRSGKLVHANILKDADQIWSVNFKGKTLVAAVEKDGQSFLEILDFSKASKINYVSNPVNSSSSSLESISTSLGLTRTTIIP
In words: yeast two-hybrid.

In a further assay the target is T5, Gal4^AD-Met30 isolates (yeast, UniProt P39014 1-640, limits assumed).
T5 construct: Library clones; all contained the F-box; also called Met30 two hybrid isolates; full length Met30 in the two hybrid system
T5 sequence: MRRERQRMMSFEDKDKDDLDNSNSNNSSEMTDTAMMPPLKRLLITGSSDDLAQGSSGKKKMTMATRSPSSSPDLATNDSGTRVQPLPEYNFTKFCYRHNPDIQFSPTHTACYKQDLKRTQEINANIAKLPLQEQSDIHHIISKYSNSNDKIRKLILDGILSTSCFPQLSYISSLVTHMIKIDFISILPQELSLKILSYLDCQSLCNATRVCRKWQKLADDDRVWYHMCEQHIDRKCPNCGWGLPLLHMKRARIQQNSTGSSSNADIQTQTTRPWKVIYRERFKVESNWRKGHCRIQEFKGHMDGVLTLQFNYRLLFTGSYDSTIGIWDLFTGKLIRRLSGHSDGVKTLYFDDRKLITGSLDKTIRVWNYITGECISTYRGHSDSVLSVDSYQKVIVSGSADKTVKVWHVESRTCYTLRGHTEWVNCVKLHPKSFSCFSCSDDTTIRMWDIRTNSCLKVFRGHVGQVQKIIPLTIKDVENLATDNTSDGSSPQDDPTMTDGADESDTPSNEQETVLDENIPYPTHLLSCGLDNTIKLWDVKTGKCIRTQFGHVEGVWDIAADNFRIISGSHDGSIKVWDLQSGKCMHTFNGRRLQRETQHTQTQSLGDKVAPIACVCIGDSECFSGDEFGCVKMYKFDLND
Put plainly: yeast two-hybrid.

B1: Cdc53^Δ9-280 (MYC-tagged) (other, not shown: small tags and cut ends)
chain: MSETLPRSMALNKVLITDHIEKLENEFVVLLDARDIEKITSLYALIRRDFTLIPRMASVFENYVKKTGENEISSLLAMHKHNIMKNENANPKKLALMTAHSLSPKDYIKKLLEVHDIFSKIFNESFPDDIPLAKALDNACGAFININEFALPAGSPKSATSKTSEMLAKYSDILLKKATKPEVASDMSDEDIITIFKYLTDKDAFETHYRRLFAKRLIHGTSTSAEDEENIIQRLQAANSMEYTGKITKMFQDIRLSKILEDDFAVALKNEPDYSKAKYPDLQPFVLAENMWPFSYQEVEFKLPKELVPSHEKLKESYSQKHNGRILKWLWPLCRGELKADIGKPGRMPFNFTVTLFQMAILLLYNDADVLTLENIQEGTSLTIQHIAAAMVPFIKFKLIQQVPPGLDALVKPETQFKLSRPYKALKTNINFASGVKNDILQSLSGGGHDNHGNKLGNKRLTEDERIEKELNTERQIFLEACIVRIMKAKRNLPHTTLVNECIAQSHQRFNAKVSMVKRAIDSLIQKGYLQRGDDGESYAYLA
notes: Deletion built with natural and engineered restriction sites; also called CDC53^MΔ9-280; pMT1850
Consider B1, for which the binding result with Cdc4, in the assay with Met30 and with Grr1 was “no binding” in each case.

B2: Gal4^DBD-Cdc53^ΔN (other, not shown: small tags and cut ends)
chain: MALNKVLITDHIEKLENEFVVLLDARDIEKITSLYALIRRDFTLIPRMASVFENYVKKTGENEISSLLAMHKHNIMKNENANPKKLALMTAHSLSPKDYIKKLLEVHDIFSKIFNESFPDDIPLAKALDNACGAFININEFALPAGSPKSATSKTSEMLAKYSDILLKKATKPEVASDMSDEDIITIFKYLTDKDAFETHYRRLFAKRLIHGTSTSAEDEENIIQRLQAANSMEYTGKITKMFQDIRLSKILEDDFAVALKNEPDYSKAKYPDLQPFVLAENMWPFSYQEVEFKLPKELVPSHEKLKESYSQKHNGRILKWLWPLCRGELKADIGKPGRMPFNFTVTLFQMAILLLYNDADVLTLENIQEGTSLTIQHIAAAMVPFIKFKLIQQVPPGLDALVKPETQFKLSRPYKALKTNINFASGVKNDILQSLSGGGHDNHGNKLGNKRLTEDERIEKELNTERQIFLEACIVRIMKAKRNLPHTTLVNECIAQSHQRFNAKVSMVKRAIDSLIQKGYLQRGDDGESYAYLA
notes: Made by NcoI digestion and religation; also called pMT954; Cdc53 lacking the N-terminal 280 residues
Take B2: the binding result with Gal4^AD-Cdc4 isolates and in the assay with Gal4^AD-Met30 isolates was “no binding” throughout.
